Results on 12 molecules are retold here after US20260028422A1 (CONCEPT TO MEDICINE BIOTECH, published 2026).

In one assay the target is T1, cyno MerTK-his protein (cynomolgus, UniProt A0A2K5V1H9 27-505).
T1 construct: also called cyno MerTK protein; Cynomolgus
T1 sequence: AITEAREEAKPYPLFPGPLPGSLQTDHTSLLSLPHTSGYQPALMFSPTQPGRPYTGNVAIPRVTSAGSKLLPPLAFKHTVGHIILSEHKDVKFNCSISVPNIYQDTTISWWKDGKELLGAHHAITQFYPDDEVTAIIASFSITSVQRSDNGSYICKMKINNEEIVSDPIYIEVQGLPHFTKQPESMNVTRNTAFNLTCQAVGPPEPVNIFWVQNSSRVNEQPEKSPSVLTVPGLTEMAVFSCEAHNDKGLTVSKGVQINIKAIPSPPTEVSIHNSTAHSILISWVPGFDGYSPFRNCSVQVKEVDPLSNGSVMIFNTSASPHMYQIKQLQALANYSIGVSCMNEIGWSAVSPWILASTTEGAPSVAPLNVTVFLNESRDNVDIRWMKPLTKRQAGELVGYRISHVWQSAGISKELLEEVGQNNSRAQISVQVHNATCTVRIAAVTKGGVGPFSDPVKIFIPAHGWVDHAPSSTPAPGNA
Description: ELISA, coated cyno MerTK-his. As to the method:
(§1) To evaluate the binding activity, the chimeric mAbs were subjected to ELISA test. Briefly, 96-well plates were coated with human or cyno MerTK-his protein at 2 μg/mL in PBS, 100 μL/well at 4° C. overnight, then blocked with 150 μL/well of 1% BSA. Five-fold dilutions of MerTK antibodies starting from 20 nM were added to each well and incubated for 1 hour at room temperature. The plates were washed with PBS/Tween-20 and then incubated with goat anti-human IgG Fe antibody conjugated with Horse Radish Peroxidase (HRP) for 30 minutes (mins) at room temperature. After washing, the plates were developed with TMB substrate and subsequent stop solution was added to complete the reaction. The signal from each well was read by spectrophotometer at OD 450 nm.
(An ELISA detects its analyte on a solid surface through an enzyme-linked reagent.)

The next assay has as its target T2, human MerTK-his protein (human, UniProt Q12866 21-505).
T2 construct: extracellular domain; also called hMerTK-His; human MerTK protein
T2 sequence (looked up): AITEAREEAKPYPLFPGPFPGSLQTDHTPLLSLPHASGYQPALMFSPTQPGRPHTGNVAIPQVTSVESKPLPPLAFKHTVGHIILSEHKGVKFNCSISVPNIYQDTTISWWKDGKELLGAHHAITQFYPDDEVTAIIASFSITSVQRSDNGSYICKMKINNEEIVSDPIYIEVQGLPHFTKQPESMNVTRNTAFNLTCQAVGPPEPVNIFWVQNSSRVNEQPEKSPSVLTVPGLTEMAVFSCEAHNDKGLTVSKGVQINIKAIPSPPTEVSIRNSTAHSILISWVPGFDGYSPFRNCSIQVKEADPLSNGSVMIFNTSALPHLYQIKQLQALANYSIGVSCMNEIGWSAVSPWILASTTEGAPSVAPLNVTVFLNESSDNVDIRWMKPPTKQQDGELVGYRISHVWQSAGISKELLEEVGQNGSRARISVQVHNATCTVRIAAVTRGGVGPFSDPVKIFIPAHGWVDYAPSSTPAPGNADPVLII
As to the kind of experiment: ELISA, coated human MerTK-his. As to the method:
as §1

The target in assay [1] is T3, Human MerTK-mouse Fc fusion protein (human, UniProt Q12866 21-499, limits assumed).
T3 construct: also called hMerTK; Human MerTK-mouse Fe fusion protein
T3 sequence (looked up): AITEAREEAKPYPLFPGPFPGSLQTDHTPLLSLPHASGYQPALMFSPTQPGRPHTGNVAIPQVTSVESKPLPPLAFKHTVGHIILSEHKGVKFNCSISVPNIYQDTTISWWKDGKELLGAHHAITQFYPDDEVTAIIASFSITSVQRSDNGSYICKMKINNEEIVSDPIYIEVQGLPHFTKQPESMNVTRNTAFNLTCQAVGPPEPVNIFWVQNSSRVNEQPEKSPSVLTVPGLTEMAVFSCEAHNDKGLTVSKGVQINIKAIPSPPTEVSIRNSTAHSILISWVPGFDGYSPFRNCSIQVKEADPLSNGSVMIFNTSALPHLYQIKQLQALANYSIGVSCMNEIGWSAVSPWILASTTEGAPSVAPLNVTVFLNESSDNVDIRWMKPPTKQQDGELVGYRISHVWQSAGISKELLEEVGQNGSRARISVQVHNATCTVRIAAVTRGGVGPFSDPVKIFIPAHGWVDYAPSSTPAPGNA
As to the kind of experiment: FACS blocking: binding of human MerTK-mouse Fc to Jurkat cells overexpressing human Gas6, MFI (AF488). As to the method:
To evaluate the blocking effects of anti-hMerTK mAbs on hMerTK binding to its ligand hGas6, a receptor blocking assay was set-up. Briefly, Jurkat cells engineered to overexpress human Gas6 were added to the 96-well microplates at a density of 5×10⁴ cells per well. Human MerTK-mouse Fe fusion protein (50 μL/well, […]) and the MerTK chimeric antibodies with a 3-fold serial dilution starting from 120 nM at a volume of 50 μL were added to the 96-well plates and incubated at 4° C. for 30 mins. After washing with FACS buffer, the plates were incubated with diluted Alex Fluor 488 conjugated goat anti-mouse IgG antibody for 30 mins at 4′C. After washing, the plates were analyzed by QuantAnalyzer 16.

B1: 252H9D5 chimeric monoclonal antibody (antibody, V domains shown)
VH: QVTLRESGPGILQPSQTLSLTCSFSGFSLNTFGMGVGWIRQSSGKGLKWLAHIWWDDDKFYNPALKSRLTISKDTSKNQVFLKIANVDTTDTATYYCARIEGGLPYYYDYWGQGTPLIVSS
VL: DIVMTQSQKIMSTSVGDRISVTCKASQIVGTNVVWYQQKPGQSPKALIYSTSYRYSGVPDRFTGSRSGTDFTLTISNVQSEDLANYFCQQYNSYPFTFGSGTKLEIK
With B1, the EC50 was 150 pM with cyno MerTK-his protein and 52 pM in the assay with human MerTK-his protein.

B2: h13B4.v16 benchmark antibody (antibody, V domains shown)
VH: EVQLVESGEGLVQPGGSLRLSCAASGFSLSSYAMGWVRQAPGKGLEYVGIINSYGNTYYANWAKGRFTISRDNSKNTVYLQMGSLRAEDMAVYYCARDPGVSSNLWGRGTLVTVSS
VL: DIQMTQSPSTLSASVGDRVTITCQASQNIYSGLAWYQQKPGKAPKLLIYGASKLASGVPSRFSGSGSGTEFTLTISSLQPDDFATYYCQATYYSSNSVAFGGGTKVEIK
Consider B2, for which, in assay [1], the IC50 was 836 pM.

B3: 252C12B10 chimeric monoclonal antibody (antibody, V domains shown)
VH: QVQLQQPGTELVKPGASVKLSCKTSGYTFTSYWMHWMKQRPGQGLEWLGHINPSTGGSNYNEKFKSKATLTVDKSSNTAYMQLSSLTSEDSAVYYCARPRGFYGYSYWYFDVWGSGTTVTVSS
VL: DIQMTQTTSSLSASLGDRVTISCSASQDINNYLNWYQHKPDGTIKVLIYFTSSLHSGVPSRFSGSGSGTEYSLTISNLEPEDIATYYCQQYSKLPPTFGSGTKLEIK
Regarding B3, the EC50 in the assay with cyno MerTK-his protein was 40 pM; with human MerTK-his protein, 39 pM.

B4: 10F7D9 chimeric monoclonal antibody (antibody, V domains shown)
VH: QIQLVQSGPELKKPGETVKISCKASGYTFTNYGMNWVKQAPGKGLKWMGWINTYTGEPTYADDFKGRFAFSLETSASTAYLQINNLKNEDLATYFCATYGHYAWFAYWGQGTLVTVSA
VL: QIVLSQSPAILSASPGEKVTMTCRASSSVSYMHWYQQKSGSSPKPWIYATSNLASGVPARFSGSGSGTSYSLTISRVEAEDAATYFCQQWGTKPLTFGAGTKLELK
Turning to B4, the EC50 is 24 pM with cyno MerTK-his protein and 27 pM in the assay with human MerTK-his protein.

B5: 85H8D5 chimeric monoclonal antibody (antibody, V domains shown)
VH: QIQLVQSGPELKKPGETVKISCMASGYTFTTHGVTWVKQAPGQGLQRMGWINTYSGVPTYADDFKGRFVFSLETSANTAHLQINNLKNEDTATYFCARTNNYRYFDVWGTGTTVTVSS
VL: QIVLSQSPAILSSSPGEKVTMTCRASSSVSYMHWYQQKPGSSPKPWIYATSNLASGVPARFSGSGSGTSYFLTISRVEAEDAATYYCQQWNTDPPTFGGGTKLEIK
As for B5, the EC50 came out at 24 pM with cyno MerTK-his protein and 25 pM with human MerTK-his protein.

B6: 247E5A8 chimeric monoclonal antibody (antibody, V domains shown)
VH: DVQLQESGPGLVKPSQSLSLTCSVTGYSITGGYYWTWIRQFPGNKLEWMGYISYDGDNNYNPSLKNRISITRDTSKNQFFLNLNSVTTEDTATYYCAREGGRLRTMDYWGQGTSVTVSS
VL: QIVLTQSPAIMSASPGEKVTITCRASSSVNYMHWFQQKPGTSPKLWIYTTSNLASGVPARFSGSGSGTSYSLTISRMEAEDAATYYCQQRSSYPFTFGSGTKLEIK
In the case of B6, the EC50 stood at 37 pM with cyno MerTK-his protein and 32 pM with human MerTK-his protein.

B7: 216G3D6 chimeric monoclonal antibody (antibody, V domains shown)
VH: QVTLKESGPGILQPSQTLSLTCSFSGFSLSTSGMGVGWIRQPSGKGLEWLAHIWWDDDKHCNPALKSRLTISKDTSSNQVFLKIASLDTADTATYYCTQMTMTREFAYWGQGTLVTVSA
VL: DIQMTQTISSLSASLGDRVTISCSAGQGISNYLNWYQQKPDGTVKLLIYYTSRLHSGVPSRFSGSGSGTDFSLTISNLEPEDIATYFCQQYSKFPYTFGGGTKLEIK
On to B7, for which the figures for the EC50 with cyno MerTK-his protein and with human MerTK-his protein were 47 pM and 46 pM, respectively.

B8: 276C2D1 chimeric monoclonal antibody (antibody, V domains shown)
VH: QVQLQQSGPELVKPGASVKLSCKASGYTFTSYDINWVKQRPGLGLEWIGWIYPRDGYTKYNEKFKGKATLAVDTSSSTAYMELHSLTSEDSAVYFCARGYYSNLYYFDYWGQGTTLTVSS
VL: EVVLTQSPPTMAASPGEKITITCSASSSISSNYLHWYQQKPGFSPKLLIYRTSNLASGVPARFSGSGSGTSYSLTIGTMEAEDVATYYCQQGRSIPLTFGAGTKLELK
On to B8, for which the EC50 with cyno MerTK-his protein came out at 20 pM; with human MerTK-his protein, 19 pM. Further, the IC50 in assay [1] is 813 pM.

B9: 300A5A3 chimeric monoclonal antibody (antibody, V domains shown)
VH: QVQLQQSGPELVKPGASVKLSCKASGYTFTTYDINWVKQRPGLGLEWIGWIYPRDGYTKYNEKFKGKATLAVDTSSSTASMELHSLTSEDSAVYFCARGYYDNLYYFDNWGPGTTLTVSS
VL: ENVLTQSPTTVAASPGEKITITCSASSIISSNYLHWYQQKPGFSPKLLIYRTSNLASGVPARFSGSGSGTSYSLTIGTMEAEDAATYYCQQGRSVPLTFGAGTKLELK
With B9, the concentration giving a half-maximal response (EC50) with cyno MerTK-his protein was 26 pM; with human MerTK-his protein it was 24 pM. For the same molecule, the IC50 in assay [1] came to 867 pM.

B10: 293C2B7 chimeric monoclonal antibody (antibody, V domains shown)
VH: QVQLQQSGPELVKPGASVKLSCKASGYTFTSYDINWVKQRPGQGLEWIGWIYPRDGYTKYKEKFKGKATLTVDTSSSTAYMELHSLTSEDSAVYFCARGFYSNLYYFDYWGQGTTLTVSS
VL: EIVLTQSPTTMATSPGEKITITCSASSSISSNYLHWYQQKPGFSPKLLIYRTSNLASGVPDRFSGSGSGTSYSLTIGTMEAEDVATYYCQQGRSIPLTFGAGTKLELK
As for B10, the EC50 with cyno MerTK-his protein came to 20 pM; with human MerTK-his protein, 17 pM. For the same molecule, the IC50 in assay [1] turned out to be 779 pM.

B11: 265F11B5 chimeric monoclonal antibody (antibody, V domains shown)
VH: QVQLQQSGPELVKPGASVRLSCKASGYTFTTYDINWVKQRPGLGLEWIGWIYPRDGYTKYNEKFKGRATLAVDTSSSTAYMELHSLTSEDSAVYFCTRGYYDNLYYFDYWGQGTTLTVSS
VL: EIVLTQSPTTVAASPGEKITITCSASSIISSNYFHWYQQRPGFSPKLLIYRTSNLASGVPARFSGSGSGTSYSLTIGTMEAEDVATYYCQQGRSVPLTFGAGTKLELK
As for B11, the EC50 is 17 pM with cyno MerTK-his protein and 9.7 pM with human MerTK-his protein. The molecule further yielded a 50% inhibitory concentration (IC50) in assay [1] of 798 pM.

B12: 254B4D9 chimeric monoclonal antibody (antibody, V domains shown)
VH: QIQLVQSGPELKKPGETVKISCKASGYTFTAYGMSWVKQAPGKGLQWMGWINTYSGVPTYTDDFKGRFAFSLEASASTAFLQINNLKNEDTSTYFCARRAAVVAKYWYFDVWGTGTTVTVSS
VL: DIQMTQSPSSLFASLGGKVIITCKSSQDINKRISWYQHKPGKGPRLLIHSTSSLQPGIPLRFSGSGSGRDYSFSISNLEPEDIATYFCLQYDNLLTFGAGTKLELK
On to B12, for which the EC50 was 56 pM in the assay with cyno MerTK-his protein and 47 pM with human MerTK-his protein. Moreover, the IC50 in assay [1] was around 773 pM.

As usually defined, the EC50 is the concentration that produces a half-maximal response. Low readings indicate an effect from little substance, high ones a need for much substance. A word on the IC50: it is the concentration that gives 50% inhibition. Low values mean greater potency, high ones weaker potency.
